Assay results: patent US20200277374A1 (Alector, published 2020)
One block for each binder: values may come before it.

What was measured:
[1] = biological target: T1, human Siglec-7 expressed on human cells (primary monocytes, dendritic cells, macrophages, NK cells, … (human, UniProt Q9Y286 19-467)); experiment: cell-based or functional assay
[2] = biological target: T1, human Siglec-7 expressed on human cells …; experiment: cell-based or functional assay; remark: listed apart in the source
[3] = biological target: T1, human Siglec-7 expressed on human cells …; experiment: FACS, human primary monocytes, 10 ug/ml mAb
Procedure: (§1) Initial characterization of Siglec-7 antibodies involved determining their ability to bind Siglec-7 expressed on human primary monocytes, human primary macrophages, human primary dendritic cells, human primary neutrophils, and human primary natural killer (NK) cells. Cells were harvested, plated at 10⁶/ml in a 96 well plate, and incubated in 100 ul PBS containing 2% FBS, 2 mM EDTA and 10 μg/ml Mab and Fc blocking reagent for 1 hour in ice. Cells were washed twice and incubated in 100 ul PBS containing 2% FBS, 2 mM EDTA and 5 ug/ml PE-conjugated secondary antibody for 30 minutes on ice. Cells were washed twice in cold PBS and analyze by flow cytometry on a BD FACS Canto. Data analysis and calculation of MFI values was performed with FlowJo (TreeStar) software version 10.0.7.
(§2) Percent positive binding and mean fluorescent intensity (MFI) values for cell types bound by Siglec-7 antibodies are listed in Table 4A. Binding is compared to an isotype control. The antibodies bind to human primary monocytes, human primary dendritic cells, and human primary macrophages. In Table 4A, “Buffer” refers to cells that were treated only with the PBS buffer described supra; “Secondary Ab” refers to cells that were treated only with the PE-conjugated secondary antibody; “mIgG1,” “mIgG2a,” and “mIgG2b” refer to isotype control antibodies; and “RDS7” refers to commerically available anti-Siglec-7 antibody Mab1138 (R&D Systems; Cat. No. MAB 1138).

[4] = biological target: T1, human Siglec-7 expressed on human cells …; experiment: FACS, human primary macrophages, 10 ug/ml mAb
Procedure: as §1, §2

[5] = biological target: T1, human Siglec-7 expressed on human cells …; experiment: FACS, human primary dendritic cells, 10 ug/ml mAb
Procedure: as §1, §2

[6] = biological target: T2, Histidine-tagged human Siglec-7 (NovoProtein) (human, UniProt Q9Y286 19-357, limits assumed); experiment: SPR (BiaCore T200, 25 C), antibody captured on anti-mouse IgG, Siglec-7-His 35 nM, single-concentration kinetics
T2 construct: Bought protein; also called purified Siglec-7-his tagged protein; not shown: histidine tag
Procedure: SPR data was collected at a rate of 10 Hz at 25′ C on a BiaCore T200 instrument. Data analysis was performed using BiaCore T200 Evaluation Software, version 2.0. HBS-EP+ (100 mM HEPES, 1.5 M NaCl, 30 mM EDTA, 0.5% v/v Surfactant P20, pH 7.4) was used as running buffer and for preparing reagents.
Mouse-derived antibodies (25 nM) against Siglec-7 were captured (60 s contact time, 30 μL/min flow rate, 0 s stabilization time) on a CM5 sensor chip (GE Healthcare) immobilized with anti-mouse IgG. Histidine-tagged human Siglec-7 (NovoProtein) was then flowed over the captured anti-Siglec-7 surface (120 s contact time, 30 μL/min flow rate, 300 s dissociation time). Concentration of antigen ranged from 5 nM to 100 nM, depending on information obtained from an initial screen. Duplicate single-concentration trials were performed and bracketed by a blank (0 nM antigen) sample. The chip surface was regenerated in between cycles using 10 mM glycine-HCl, pH1.7 (60 s contact time, 30 μL/min flow rate, 60 s stabilization time). The resulting SPR signal was obtained as the difference in response from measurements performed on a blank flow cell.
Affinity constants (KD) were calculated from the ratio kd/kₐ. For one antibody (clone 1E8), we validated the single-concentration analysis with a multiple-concentration approach (five concentrations of antigen used, plus one blank).

[7] = biological target: T3, Siglec-7-Fc (plate immobilized) (human, UniProt Q9Y286 19-357, limits assumed); experiment: RBC solid adhesion assay, plate-coated Siglec-7-Fc, antibody 0.5 or 1.0 ug/ml; % of RBC binding without antibody
T3 construct: also called Siglec-7-Fc protein; immobilized Siglec-7; not shown: Fc part
Summary of the method: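 Plates coated overnight at RT with 5 μg/ml Siglec-7-Fc and blocked in PBS with BSA and 1 mM CaCl₂. Antibody (0.5 or 1.0 μg/ml) bound 1 h at RT, then RBCs (3.0×10⁶ cells/ml) added for 1 h at RT. Bound RBCs lysed and detected by peroxidase at 450 nm, expressed as % of binding without antibody.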

T107A [8] = biological target: T4, T107A (human, UniProt Q9Y286); experiment: flow cytometry on HEK-293T cells expressing the mutant, mock signal subtracted
T4 construct: clone of the siglec-7 mutation library; also called Siglec-7 T107A
Procedure: (§3) Shotgun mutagenesis epitope mapping of anti-siglec-7 antibodies was performed using an alanine-scanning library for the siglec-7 protein. […] Each of residues 19 to 353 was mutated, representing the siglec-7 extracellular domain, most to alanine, while alanine codons were mutated to serine. In total, 335 siglec-7 mutant expression constructs were generated, sequences confirmed, and arrayed into a 384-well plate, one mutant per well.
Cells were then incubated with MAbs diluted in 10% o normal goat serum (NGS) (Sigma-Aldrich, St. Louis, Mo.). Prior to library screening, primary MAb concentrations were determined using an independent immunofluorescence titration curve against cells expressing wild-type siglec-7 to ensure that signals were within the linear range of detection. MAbs were detected using 3.75 μg/ml AlexaFluor488-conjugated secondary antibody (Jackson immunoResearch Laboratories, Westgrove, Pa.) in 10% NGS. […] Mean cellular fluorescence was detected using the Intellicyt high throughput flow cytometer (HTFC, Intellicyt, Albuquerque, N. Mex.). MAb reactivities against each mutant clone were calculated relative to wild-type siglec-7 protein reactivity by subtracting the signal from mock-transfected controls, and normalizing to the signal from wild-type siglec-7-transfected controls.

F48A (human) = F48A (human) (UniProt Q9Y286); experiment: flow cytometry on HEK-293T cells expressing the mutant; mean % of wild-type signal (range of duplicates)
M30A (human) = M30A (human) (UniProt Q9Y286); experiment: as above
T103A (human) = T103A (human) (UniProt Q9Y286); experiment: as above
V44A (human) = V44A (human) (UniProt Q9Y286); experiment: as above
Y50A (human) = Y50A (human) (UniProt Q9Y286); experiment: as above
I72A = biological target: T5, I72A (human, UniProt Q9Y286); experiment: as above
T5 construct: clone of the siglec-7 mutation library; also called Siglec-7 I72A
Procedure: as §3
(§4) Cells were then incubated with MAbs diluted in 10% o normal goat serum (NGS) (Sigma-Aldrich, St. Louis, Mo.). Prior to library screening, primary MAb concentrations were determined using an independent immunofluorescence titration curve against cells expressing wild-type siglec-7 to ensure that signals were within the linear range of detection. MAbs were detected using 3.75 μg/ml AlexaFluor488-conjugated secondary antibody (Jackson immunoResearch Laboratories, Westgrove, Pa.) in 10% NGS. Cells were washed twice with PBS−/− and resuspended in Cellstripper (Cellgro, Manassas, Va.) with 0.1% BSA (Sigma-Aldrich, St. Louis, Mo.). Mean cellular fluorescence was detected using the Intellicyt high throughput flow cytometer (HTFC, Intellicyt, Albuquerque, N. Mex.). MAb reactivities against each mutant clone were calculated relative to wild-type siglec-7 protein reactivity by subtracting the signal from mock-transfected controls, and normalizing to the signal from wild-type siglec-7-transfected controls.

W74A = biological target: T6, W74A (human, UniProt Q9Y286); experiment: as above
T6 construct: clone of the siglec-7 mutation library; also called Siglec-7 W74A
Procedure: as §3, §4

N81A = biological target: T7, N81A (human, UniProt Q9Y286); experiment: as above
T7 construct: clone of the siglec-7 mutation library; also called Siglec-7 N81A
Procedure: as §3, §4

T107A [9] = biological target: T4, T107A; experiment: as above
Procedure: as §3, §4

R124A = biological target: T8, R124A (human, UniProt Q9Y286); experiment: as above
T8 construct: clone of the siglec-7 mutation library; also called Siglec-7 R124A
Procedure: as §3, §4

Q31A = biological target: T9, Q31A (human, UniProt Q9Y286); experiment: as above
T9 construct: clone of the siglec-7 mutation library; also called Siglec-7 Q31A
Procedure: as §3, §4

R45A = biological target: T10, R45A (human, UniProt Q9Y286); experiment: as above
T10 construct: clone of the siglec-7 mutation library; also called Siglec-7 R45A
Procedure: as §3, §4

S47A = biological target: T11, S47A (human, UniProt Q9Y286); experiment: as above
T11 construct: clone of the siglec-7 mutation library; also called Siglec-7 S47A
Procedure: as §3, §4

T1 sequence (Q9Y286 19-467): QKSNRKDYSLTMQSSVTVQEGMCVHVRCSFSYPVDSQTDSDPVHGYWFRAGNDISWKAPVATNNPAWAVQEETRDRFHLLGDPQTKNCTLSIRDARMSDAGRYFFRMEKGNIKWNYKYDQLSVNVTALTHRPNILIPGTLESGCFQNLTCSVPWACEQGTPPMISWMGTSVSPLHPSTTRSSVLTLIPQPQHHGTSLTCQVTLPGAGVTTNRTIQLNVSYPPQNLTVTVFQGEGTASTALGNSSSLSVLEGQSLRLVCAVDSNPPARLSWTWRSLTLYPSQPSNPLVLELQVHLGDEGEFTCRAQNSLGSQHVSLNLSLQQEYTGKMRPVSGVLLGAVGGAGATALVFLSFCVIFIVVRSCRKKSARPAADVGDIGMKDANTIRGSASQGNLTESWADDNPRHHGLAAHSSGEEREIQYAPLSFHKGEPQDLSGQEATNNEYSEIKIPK
T4 sequence (Q9Y286 19-467 T107A limits assumed): as the sequence (Q9Y286 19-467) above, with T89A counted along it
Chain of M30A (human) (Q9Y286 19-467 M30A limits assumed): as the sequence (Q9Y286 19-467) above, with M12A counted along it
Chain of V44A (human) (Q9Y286 19-467 V44A limits assumed): as the sequence (Q9Y286 19-467) above, with V26A counted along it
T10 sequence (Q9Y286 19-467 R45A limits assumed): as the sequence (Q9Y286 19-467) above, with R27A counted along it
T9 sequence (Q9Y286 19-467 Q31A limits assumed): as the sequence (Q9Y286 19-467) above, with Q13A counted along it
Chain of F48A (human) (Q9Y286 19-467 F48A limits assumed): as the sequence (Q9Y286 19-467) above, with F30A counted along it
T6 sequence (Q9Y286 19-467 W74A limits assumed): as the sequence (Q9Y286 19-467) above, with W56A counted along it
T8 sequence (Q9Y286 19-467 R124A limits assumed): as the sequence (Q9Y286 19-467) above, with R106A counted along it
T5 sequence (Q9Y286 19-467 I72A limits assumed): as the sequence (Q9Y286 19-467) above, with I54A counted along it
T3 sequence (Q9Y286 19-357 limits assumed): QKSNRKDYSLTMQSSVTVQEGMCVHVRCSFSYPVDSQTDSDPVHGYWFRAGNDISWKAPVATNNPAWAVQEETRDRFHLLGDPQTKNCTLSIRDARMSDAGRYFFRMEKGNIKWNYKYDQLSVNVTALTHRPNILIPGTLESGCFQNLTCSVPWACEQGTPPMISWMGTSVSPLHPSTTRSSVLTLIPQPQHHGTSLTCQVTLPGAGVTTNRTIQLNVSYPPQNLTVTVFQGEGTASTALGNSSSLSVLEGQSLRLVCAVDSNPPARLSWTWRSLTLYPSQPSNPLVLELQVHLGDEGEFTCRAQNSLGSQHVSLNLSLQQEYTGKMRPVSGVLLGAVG
T2 sequence (Q9Y286 19-357 limits assumed): as above
T11 sequence (Q9Y286 19-467 S47A limits assumed): as the sequence (Q9Y286 19-467) above, with S29A counted along it
T7 sequence (Q9Y286 19-467 N81A limits assumed): as the sequence (Q9Y286 19-467) above, with N63A counted along it
Chain of Y50A (human) (Q9Y286 19-467 Y50A limits assumed): as the sequence (Q9Y286 19-467) above, with Y32A counted along it
Chain of T103A (human) (Q9Y286 19-467 T103A limits assumed): as the sequence (Q9Y286 19-467) above, with T85A counted along it

- Percent Siglec-7 Surface Expression, DCs [1]: 96.9%
- Percent Siglec-7 Surface Expression, Monocytes [1]: 39%
- Percent Siglec-7 Surface Expression, U937 cells [1]: 86.3%
- Percent Siglec-7 Surface Expression, Macrophages [2]: 13.1%
- Percent Siglec-7 Surface Expression, Microglia [2]: 28.1%
- Percent Siglec-7 Surface Expression, NK cells [2]: 124%
- % Positive [3]: 99.3%
- MFI [3]: 472
- % Positive [4]: 99.3%
- MFI [4]: 12300
- % Positive [5]: 99.7%
- MFI [5]: 5000
- Kd [6]: 0.4 nM
- Percent RBC Binding to Siglec-7 [7]: 7.9%
B1: anti-Siglec-7 antibody 7F12 (antibody, V domains shown)
VH: QVQLQQSGSELRSPGSSVKLSCKDFDSEVFPITYMNWVRQKPGHGFEWIGDILPSIGRTMYGEKFEDKATLDADTVSNTAYLELNSLTSEDSAIYYCARSEGYLLAYWGQGTLVTVSA
VL: DVLMTQTPLSLPVSLGDQASISCRSSQSLVHSTGNTYLHWYLQKPGQSPKLLIYKVSNRFSGVPDRFSGSGAGTDFTLKISRVEAEDLGVYFCSQNTHVPYTFGGGTKLEIK
notes: Variable domains assembled from FR and CDR entries

- binding result (T107A [8]): no binding
- Binding Reactivity (% WT) (F48A (human)): 13.9 % WT
- Binding Reactivity (% WT) (M30A (human)): 20.1 % WT
- Binding Reactivity (% WT) (T103A (human)): 6.3 % WT
- Binding Reactivity (% WT) (V44A (human)): 13.3 % WT
- Binding Reactivity (% WT) (Y50A (human)): 18.2 % WT
- Binding Reactivity (% WT) (I72A): 92.8 % WT
- Binding Reactivity (% WT) (W74A): 79.8 % WT
- Binding Reactivity (% WT) (N81A): 138 % WT
- Binding Reactivity (% WT) (T107A [9]): 0.4 % WT
- Binding Reactivity (% WT) (R124A): 81.1 % WT
- Binding Reactivity (% WT) (Q31A): 18.2 % WT
- Binding Reactivity (% WT) (R45A): 1.6 % WT
- Binding Reactivity (% WT) (S47A): 1.5 % WT
B2: 10B5 Fab (Fab, V domains shown)
VH: QVHLQQSGPELVKPGASVKISCKASGYAFTNCWMNWVRQRPGKGLDWIGRIFPGNGHTNYSGKFKDKATLTEDKSSSTAYMQLSSLTSEDSAVYFCARDYSDYYFDYWGQGTTLTVSS
VL: DVQMTQTTSSLSASLGDRVTISCRASQDINTYLNWYQQKPDGTVKLLIYYTSRLHSGVPSRFSGSGSGTDYSLTISNLEQEDIATYFCQQGNTLPWTFGGGTKLEIK
